Reference: the DeepSol protein solubility set

Experiment: soluble on expression in E. coli; label from the status in PepcDB or PDB records
With “MSLSKKIVIVGGVAGGASTAARLRRLDENNQIIMFERGPHVSFSNCCLPYYLSGKVENHEDLVLMTPEKFYSQYRIDARVYTEVVSINRKAKEVTVRNVVSGQEYTESYDKLVLSPGAKAIVPPIKGIEDVNVFTVRNVVDIAKLDSFIKDNNSKNISVIGGGFIGVEVAENLHEAGYNVTLIEAMDQIMKPFDYDMVQVLHKEMYDKGVNLIVGDKVSSFESGKVVLESGKKINSDAVVMAIGVAPETDLAREAGLEIGQTGAIKVNQNYLTNDKDIYAVGDAVEVYNSLTNSISRLPLAGPAQKQARAVADHIHGRPSRNSGYIGSSCVQIFDYNGASTGLTEGQIKAMNLSLNYDVVRVIPQDKVGLMPGSEPLHFKLIFEVPTGRILGAQAIGKGNADKRVDIIATLIKMGGTVEDLKDLELCYAPPFGTAKDVVNHAALVASNLLEGTFKQVYVHEVRDLVESGACIIDVREVSEYEAGHIKGAKNLPLSEIRDRLDEIPTDRPVYLHCRSAQRSYNACLALQHLGFDNIYNVSGGFMGISFYEYYNDKVQDREPIVTEYNFNEGHHHHHH” the “soluble on expression in E. coli” value was “soluble”. With “MELLCHEVDPVRRAVRDRNLLRDDRVLQNLLTIEERYLPQCSYFKCVQKDIQPYMRRMVATWMLEVCEEQKCEEEVFPLAMNYLDRFLAGVPTPKSHLQLLGAVCMFLASKLKETSPLTAEKLCIYTDNSIKPQELLEWELVVLGKLKWNLAAVTPHDFIEHILRKLPQQREKLSLIRKHAQTFIALCATDFKFAMYPPSMIATGSVGAAICGLQQDEEVSSLTCDALTELLAKITNTDVDCLKACQEQIEAVLLNSLQQYRQDQRDGSKSEDELDQASTPTDVRDIDL” the “soluble on expression in E. coli” value was “not soluble”. For “RVKGTFNKYSQLRSMSGMNGAQVAQRVLQAAGIYDVQVRHVSGSLTDHYDPRTKTVNLSDPVYNATSVAALGVAAHECGHAIQHAKSYAPLSIRS”, the “soluble on expression in E. coli” value was “not soluble”. In the case of “MRGSPRTKDRLAALKAAVSDEEDVEEVAVQVDSGGGFMEEFFEQVEEIRAMIDKISDNVDAVKKKHSDILSAPQTDDQMKEELEELMTDIKRTANKVRGKLKTIELNIEQEEHSNKSSADLRIRKTQYSTISRKFVEVMSDYNTTQIDYRDRCKARIKRQMEITGRTTTNEELEDMLESG”, the “soluble on expression in E. coli” value is reported as “soluble”. In the case of “MGSSHHHHHHSSGLVPRGSTKVKYVDKIHIGNYEIDAWYFSPFPEDYGKQPKLWLCEYCLKYMKYEKSYRFHLGQCQWRQPPGKEIYRKSNISVHEVDGKDHKIYCQNLCLLAKLFLDHKTLYFDVEPFVFYILTEVDRQGAHIVGYFSKEKESPDGNNVACILTLPPYQRRGYGKFLIAFSYELSKLESTVGSPEKPLSDLGKLSYRSYWSWVLLENLRDFRGTLSIKDLSQMTSITQNDIISTLQSLNMVKYWKGQHVICVTPKLVEEHLKSAQYKKPPITVDSVCLKWAPPK”, the “soluble on expression in E. coli” value is reported as “soluble”. With “MATIHVDGKEYEVNGADNLLEACLSLGLDIPYFCWHPALGSVGACRQCAVKQYQNAEDTRGRLVMSCMTPASDGTFISIDDEEAKQFRESVVEWLMTNHPHDCPVCEEGGNCHLQDMTVMTGHSFRRYRFTKRTHRNQDLGPFISHEMNRCIACYRCVRYYKDYADGTDLGVYGAHDNVYFGRPEDGTLESEFSGNLVEICPTGVFTDKTHSERYNRKWDMQFAPSICQQCSIGCNISPGERYGELRRIENRYNGTVNHYFLCDRGRFGYGYVNLKDRPRQPVQRRGDDFITLNAEQAMQGAADILRQSKKVIGIGSPRASVESNFALRELVGEENFYTGIAHGEQERLQLALKVLREGGIYTPALREIESYDAVLVLGEDVTQTGARVALAVRQAVKGKAREMAAAQKVADWQIAAILNIGQRAKHPLFVTNVDDTRLDDIAAWTYRAPVEDQARLGFAIAHALDNSAPAVDGIEPELQNKIDVIVQALAGAKKPLIISGTNAGSIEVIQAAANVAKALKGRGADVGITMIARSVNSMGLGIMGGGSLEEALTELETGRADAVVVLENDLHRYASATRVNAALAKAPLVMVVDHQRTAIMENAHLVLSSASFAESDGTVINNEGRAQRFFQVYDPAYYDSKTVMLESWRWLHSLHSTLLSREVDWTQLDHVIDAVVAKIPELAGIKDAAPDATFRIRGQKLAREPHRYSGRTAMRANISVHEPRQPQDIDTMFTFSMEGNNQPTAHRSQVPFAWAPGWNSPQAWNKFQDEVGGKLRFGDPGVRLFETSENGLDYFTSVPARFQPQDGKWRIAPYYHLFGSDELSQRAPVFQSRMPQPYIKLNPADAAKLGVNAGTRVSFSYDGNTVTLPVEIAEGLTAGQVGLPMGMSGIAPVLAGAHLEDLKEAQQ” the “soluble on expression in E. coli” value was “not soluble”. With “MAPTQAGHDTAYLKETVGEALARGCAAAISAQPNDPVEYLGLWLLKYVKNAEVEGNFYRERQQDLQKKKDRLVKEAQSEQAAKSVALTRKEAADALALVTAEPRELLEAAVKLVKQHTAAGAAYAAVVAEPEEPDWVAPEDDEAAAVETEDEAAGGAALAEGEEPPPEPEPEPEAAPEDGEGDAPAPKIPRPVDYSKKYFAYVAASAGQEHVLEADLYRPAPPPEDADEDFKPEPLPYSFRVLDEKLPMLYVPNVAAEERVKFFRKFPKIGSYQACGVALPASGEFKALLAADTLFPEGSGQPLSADDRDFVWEVSQSLSRALEAVQARAAEALAATSAAEAVEELKAKVAELREQAAAEAAAAAPPPPAEGEEGEGEAPPAEEEPPAEEEAEEEEEEAEEGAEEGAEEGEEGEEAPPKPKKKKKVFNPIPGLQAAIEKLTAAAEAATEADARAQAAVALEKQALDEVVALASSHSDATLSSLRNMLSVPQGTYHVVKALLHLLGRPAASFSTWKRAHSHFSPRLFEDMAAYDATAERDMAVWGRVRSCYKAAPAAKKLDAEMPNTLFGSVALMYIKQVRRVARKAVLQRELAAKLAKAQQDLADKQAALVEAERVKAEREAEEARLAAEAEAAAAAEAEAAARAAAEAEAAAAAEAAAEAAAEAAAAAAEAAAEAGEGEAVAEREAAPAEAEAAPAEGEAAPPAEGEGEAQPAQEGSNSSSSSSDSSSSEESKAAAE” the “soluble on expression in E. coli” value was “not soluble”. For “MGSDKIHHHHHHMKKIYKSLTVSAIVATVSLSALPQSLAITHESQPTKQQRTVLFDRSHGQTAGAADWVSDGAFSDYADSIQKQGYDVKAIDGHSNITEASLKSSKIFVIPEANIPFKESEQAAIVNYVKQGGNVVFISDHYNADRNLNRIDSSEAMNGYRRGAYEDMSKGMNAEEKSSTAMQGVKSSDWLSTNFGVRFRYNALGDLNTSNIVSSKESFGITEGVKSVSMHAGSTLAITNPEKAKGIVYTPEQLPAKSKWSHAVDQGIYNGGGKAEGPYVAISKVGKGKAAFIGDSSLVEDSSPKYVREDNGEKKKTYDGFKEQDNGKLLNNITAWMSKDSDGKSLKASGLTLDTKTKLLDFERPERSTEPEKEPWSQPPSGYKWYDPTTFKAGSYGSEKGADPQPNTPDDHTPPNQNVKISFDIPQNVSVNEPFEVTIHLKGFEANQTLENLRVGIYKEGGRQIGQFSSKDNDYNPPGYSTLPTVKADENGNATIKINAKVLESMEGSKIRLKLGDKTLITTDFK”, the “soluble on expression in E. coli” value was “not soluble”. For “MAHHHHHHMDKYGDRKLQEGIYKLNNKKIKGYIPFQSASSIIPKQIRDKGIIEVMKELEKREEELNEKTKNDQEKHKVNKMNLFKSNSMNVKRKHVFSSFKIPRKI”, the “soluble on expression in E. coli” value was “soluble”. For “AVRQLDRQGRDDVEVAVLAPQPELRIRPRFYEPDVQRMAAPLGELFAAVGVRFVQGSAQRIDVAGKRVEYRDAEGTLAQLDYDRLVLAAGSGVWRPASVAGIDAAFDVDQLEDALRLEAHLHALRDLPDSPARNTVVVAGGGFTGIETATEMPARLRAILGEKAALRVIVVDRGAAIGASMGADLSGLIAEASAELGVEWCLGRSVAAVDAEGVTLDDGQRIEAKTVVWTVGVRASTLTGQIPGERDAQGRLHVDRNLKVLGLDDVYATGDVARAATDDLGNHALMTCQHAIALGRSAGNNVAADLLGVEPIPYSQVKYVTCLDLGGWGAVFTEGWDRQVRFVREEGKKIKTEINGVWIYPPAADRAVALAAADPLIPVVA”, the “soluble on expression in E. coli” value was “not soluble”. In the case of “MAHHHHHHMFLFRHSAEPMEAEEERHERVDSTTEPHNAATAAARKRRTSADVANGEVSREASGVAESFDETGGAPHTPREGTAPPPDVHDMLEHQRPRDEDDAEADMAAAALAASAPAPFHGVPTLPMPRTCDENPQAEADGNSTQRHRSYSHTSRFAAPSPRSTSGISRGRSYSLSGLSAAELADVHEQQYRRCTSIVKSARCISARRASSVNGVVGVIDDLYTLASRRSSAMTEAERVAVERMIENEYRRQEAAERSAQFALARESIIVNEELAREKATYVRRMHLNEELHARLAKSSRTRQERMTAAAQRRQEIEQERLRVLYGSMMEKDTRYHFRNPYEMMAAQRRYSIEMRSPAAIAPQRRASSPSTRASGNAQMSPRSAEGVANCTTEDRCTSSPATRRRSSTPSIAKSKPRQCLPLDAWKKPVPPRKDSCRSDISAEHRCRSPTDWRATAVLEHPRQWH”, the “soluble on expression in E. coli” value is reported as “not soluble”. With “MSILEKIFKTRKDITYMLDLDMIEDLSQQAYVKRLAIDSCIEFVARAVAQSHFKVLEGNRIQKNDVYYKLNIKPNTDLSSDSFWQQVIYKLIYDNEVLIVVSDSKELLIADSFYREEYALYDDIFKDVTVKDYTYQRTFTMQEVIYLKYNNNKVTHFVESLFEDYGKIFGRMIGAQLKNYQIRGILKSASSAYDEKNIEKLQAFTNKLFNTFNKNQLAIAPLIEGFDYEELSNGGKNSNMPFSELSELMRDAIKNVALMIGIPPGLIYGETADLEKNTLVFEKFCLTPLLKKIQNELNAKLITQSMYLKDTRIEIVGVNKKDPLQYAEAIDKLVSSGSFTRNEVRIMLGEEPSDNPELDEYLITKNYEKANSGENDEKEKDENTLKGGDEDESGD” the “soluble on expression in E. coli” value was “not soluble”. For “MGSDKIHHHHHHMNIQDLRYFHELVNLKSYTKTAEKFGVSQPTITAAVKRLENRFGGTFLIRDQPHKSIIITRLGVQFDEHVQSILNEINIVEEEIKQNQNASIPFGLPPIIGRNYFPKIVSQLFAKGLLHRLNVIENGSYDLYHLLLEGYINFSMLGLTKVNVEPGIKLEVVKSYPMCIVVSKTHPLATKKAISFKEIANENFIGLSSDYIHTKALDRMLKKSKINLNTIYRSPDVTVVKNIVAQNLGISYLTTLSITENDDVISIPLLDKDQPKFILAAATRENHIMTDAEEEFWEILTQISLRRQVLTSTLPS”, the “soluble on expression in E. coli” value was “not soluble”. In the case of “MSLKMANPKYKRILIKLSGEALAGERGVGIDIQTVQTIAKEIQEVHSLGIEIALVIGGGNLWRGEPAAEAGMDRVQADYTGMLGTVMNALVMADSLQQVGVDTRVQTAIAMQQVAEPYVRGRALRHLEKGRIVIFGAGIGSPYFSTDTTAALRAAEIEADAILMAKNGVDGVYNADPKKDKTAVKFEELTHRDVINKGLRIMDSTASTLSMDNDIDLVVFNMNQSGNIKRVVFGENIGTTVSNNIEEKEEGHHHHHH”, the “soluble on expression in E. coli” value is reported as “soluble”. For “MSLYQEFFTFIPVDIEELDKAFGGGLIRGATISIMYDAFSLGWALGFEMVKNLIRRNSFGVIHNYNLPTIKLISRASFVGLNIQELAKRKEIMILDVFGSKYDVPPYADYVLQVPNPTPETLNPKIESVYENKIFQVAGDRRIVKLVYTLDGVATMFGEEVAIKLLNGELAWLAKMYGKRNVMTILLLNVDMVSKKFIAWTSGVSDIVITFQSLTEEREGELVERMTVIKSLNPEFEPTSYEFRVTATGTGSHALDFRKIENEGHHHHHH”, the “soluble on expression in E. coli” value was “not soluble”. With “MNLDYLKETYHLTKTESQILYYLDQQSTNAADLSIREVAKHCFSSPSSIIRLAKKLNLSGYNELIYKLKEAHFSQPIPFETAPSFETTNEFCRLLAKHKSHLFVILGHDFSRHLAAYISEVFNFHGIPSITTAYTHSINSQNNQNFLFIILSHSGEEKYLKETALLAKEKKHPIISFVGAKNSTLGRLADLVFSTDSYSPFSTSVAQPQMFFGQTLITFEALICAYLNHEDSIPISHKNK” the “soluble on expression in E. coli” value was “not soluble”.
